Consider 5 molecules from US20250092160A1 (published 2025).

For test [1], the target named is T1, Recombinant CD19 (ACROBiosystems Cat #CD9-H52H2) (UniProt P15391 20-291).
T1 construct: also called monovalent CD19
T1 sequence: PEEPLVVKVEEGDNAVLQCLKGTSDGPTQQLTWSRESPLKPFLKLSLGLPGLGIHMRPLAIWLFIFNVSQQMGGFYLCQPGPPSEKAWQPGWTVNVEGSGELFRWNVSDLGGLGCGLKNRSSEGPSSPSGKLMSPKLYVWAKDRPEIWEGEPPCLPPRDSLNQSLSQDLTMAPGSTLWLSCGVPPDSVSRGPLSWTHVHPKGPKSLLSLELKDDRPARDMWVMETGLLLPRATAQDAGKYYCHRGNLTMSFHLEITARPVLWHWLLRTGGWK
Kind of test: SPR Carterra LSA.

In test [2] the target is T2, CD16a 158V FcRγIIIa (human, UniProt P08637 17-208).
T2 construct: also called FcgRIIIa 158 V _ CD 16 a 158 V; Fc gamma RIIIa (CD16a) (Val176)
T2 sequence (P08637 17-208 F176V limits assumed): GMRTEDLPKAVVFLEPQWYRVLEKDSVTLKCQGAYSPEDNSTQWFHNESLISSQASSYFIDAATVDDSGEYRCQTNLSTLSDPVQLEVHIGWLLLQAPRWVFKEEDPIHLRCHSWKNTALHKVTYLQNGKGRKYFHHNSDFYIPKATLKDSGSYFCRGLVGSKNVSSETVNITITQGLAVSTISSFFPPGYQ
Briefly: SPR Carterra LSA.

For test [3], the target named is T3, CD32a 131R FcRγIIa (human, UniProt P12318 36-218).
T3 construct: also called Fc gamma RIIa (CD32) (Arg167)
T3 sequence (looked up): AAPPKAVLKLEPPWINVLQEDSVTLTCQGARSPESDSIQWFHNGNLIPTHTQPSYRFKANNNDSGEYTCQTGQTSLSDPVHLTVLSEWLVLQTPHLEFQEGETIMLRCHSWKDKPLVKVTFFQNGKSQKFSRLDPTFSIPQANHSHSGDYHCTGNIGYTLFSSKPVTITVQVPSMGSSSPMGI
Briefly: SPR Carterra LSA.

In test [4] the target is T4, CD64 FcRγI (human, UniProt P12314 16-288).
T4 construct: also called Fc gamma RI (CD64)
T4 sequence (P12314 16-288 limits assumed): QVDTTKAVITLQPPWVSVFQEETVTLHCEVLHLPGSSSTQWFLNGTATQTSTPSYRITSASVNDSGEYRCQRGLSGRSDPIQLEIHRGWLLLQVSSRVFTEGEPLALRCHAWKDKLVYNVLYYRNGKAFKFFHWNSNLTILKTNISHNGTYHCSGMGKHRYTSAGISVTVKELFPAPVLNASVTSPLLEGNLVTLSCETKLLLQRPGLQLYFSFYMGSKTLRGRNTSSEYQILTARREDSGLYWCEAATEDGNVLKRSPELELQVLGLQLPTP
Kind of test: SPR Carterra LSA.

Test [5] deals with T5, Recombinant CD20 (ACROBiosystems Cat #CD0-H52H3) (UniProt P11836 1-297).
T5 construct: also called monovalent CD20
T5 sequence: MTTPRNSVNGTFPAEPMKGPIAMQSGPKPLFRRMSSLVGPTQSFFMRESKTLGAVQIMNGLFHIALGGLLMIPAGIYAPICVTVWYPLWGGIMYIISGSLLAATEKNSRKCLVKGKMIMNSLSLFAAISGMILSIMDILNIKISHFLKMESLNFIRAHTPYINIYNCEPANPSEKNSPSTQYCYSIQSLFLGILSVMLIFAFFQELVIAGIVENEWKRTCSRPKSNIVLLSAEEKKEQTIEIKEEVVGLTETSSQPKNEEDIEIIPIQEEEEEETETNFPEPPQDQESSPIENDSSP
Kind of test: SPR Carterra LSA.

Test [6] addresses T2, CD16a 158V FcRγIIIa.
Test [7] addresses T3, CD32a 131R FcRγIIa.
The next test concerns the target T6, CD32a 131H FcRγIIa (human, UniProt P12318 36-218).
T6 sequence (looked up): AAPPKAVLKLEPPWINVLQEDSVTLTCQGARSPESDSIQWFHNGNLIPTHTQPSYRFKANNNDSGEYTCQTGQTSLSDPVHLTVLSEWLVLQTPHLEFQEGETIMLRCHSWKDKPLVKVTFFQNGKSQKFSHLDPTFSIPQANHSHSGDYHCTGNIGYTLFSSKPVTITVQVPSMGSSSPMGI

Test [8] deals with T4, CD64 FcRγI.
The next test concerns the target CD16b FcRγIIIb (human, UniProt O75015 20-208).
For another test, the target named is T7, CD32b/c FcRγIIb (human, UniProt P31994 46-217).
T7 sequence (looked up): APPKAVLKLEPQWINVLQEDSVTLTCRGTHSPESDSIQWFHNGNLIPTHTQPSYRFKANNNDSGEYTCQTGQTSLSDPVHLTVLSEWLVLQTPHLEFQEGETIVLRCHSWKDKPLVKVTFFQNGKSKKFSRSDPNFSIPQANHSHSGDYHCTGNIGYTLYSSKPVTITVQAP

The next test concerns the target T8, CD19 (Table 9) (UniProt P15391 20-291).
T8 sequence (looked up): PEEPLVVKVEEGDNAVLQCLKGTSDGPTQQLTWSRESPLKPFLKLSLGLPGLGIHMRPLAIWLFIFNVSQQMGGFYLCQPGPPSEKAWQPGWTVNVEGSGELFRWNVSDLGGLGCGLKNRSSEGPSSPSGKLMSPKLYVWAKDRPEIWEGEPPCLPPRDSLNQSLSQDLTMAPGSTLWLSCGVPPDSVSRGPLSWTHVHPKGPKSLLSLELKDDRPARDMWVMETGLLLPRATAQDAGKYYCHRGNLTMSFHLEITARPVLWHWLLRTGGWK

Chain of CD16b FcRγIIIb (O75015 20-208 limits assumed): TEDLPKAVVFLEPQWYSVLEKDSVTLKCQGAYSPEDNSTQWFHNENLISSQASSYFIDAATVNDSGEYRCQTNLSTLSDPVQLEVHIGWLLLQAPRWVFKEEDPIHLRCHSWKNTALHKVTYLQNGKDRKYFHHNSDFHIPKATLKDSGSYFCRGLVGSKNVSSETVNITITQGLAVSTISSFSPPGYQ

B1: HB1905 (bispecific antibody, human IgG1, kappa)
light 1: DIQMTQTTSSLSASLGDRVTISCRASQDISKYLNWYQEKPDGTVKLLIYHTSRLHSGVPSRFSGSGSGTDYSLTISNLEQEDIATYFCQQGNTLPYTFGGGTKLEIKRTVAAPSVFIFPPSDEQLKSGTASVKCLLNNFYPREAKVQWKVDNALQSGNSQESVTEQDSKDSTYSLSSTLTLSKADYEKHKVYACEVTHQGLSSPVTKSFNRGEC
heavy 1: EVKLQESGPGLVAPSQSLSVTCTVSGVSLPDYGVSWIRKPPRKGLEWLGVIWGSETTYYNSALKSRLTIIKDNSKSQVFLKMSSLQTDDTAIYYCAKHYYYGGSYAMDYWGQGTSVTVSSASTKGPSVFPLAPSSKSTSGGTAALGCLVKDYFPEPVTVSWNSGALTSGVHTFPAVLQSSGLYSLESVVTVPSSSLGTQTYICNVNHKPSNTKVDKKVEPKSCTDWSPYADQSIKVRISLKSALGDKAYEWNDNEMYLFRSSVAYAMRQYFLKVKNQMILFGEEDVRVANLKPRISFNFFVTAPKNVSDIIPRTEVEKAIRMSRSRINDAFRLNDNSLEFLGIQPTLGPPNQPPVSTSTSPTRSMAPGAVHLPQPVSTRDKTHTCPPCPAPELLGGPSVFLFPPKPKDTLMISRTPEVTCVVVDVSHEDPEVKFNWYVDGVEVHNAKTKPREEQYNSTYRVVSVLTVLHQDWLNGKEYKCKVSNKALPAPIEKTISKAKGQPREPQVCTLPPSRDELTKNQVSLSCAVKGFYPSDIAVEWESNGQPENNYKTTPPVLDSDGSFFLVSKLTVDKSRWQQGNVFSCSVMHEALHNRFTQKSLSLSPG
light 2: QVQLQQPGAELVKPGASVKMSCKASGYTFTSYNMHWVKKTPGRGLEWIGAIYPGNGDTSYNQKFKGKATLTADKSSSTAYMQLSSLTSEDSAVYYCARSTYYGGDWYFNVWGAGTLVTVSSASVAAPSVFIFPPSDEQLKSGTASVECLLNNFYPREAKVQWKVDNALQSGNSQESVTEQDSKDSTYSLSSTLTLSKADYEKHKVYACEVTHQGLSSPVTKSFNRGEC
heavy 2: not shown
notes: also called anti-CD20/anti-CD19 bispecific GEM-DIMER
Regarding B1, the binding result (in [1]; in the test with CD16a 158V FcRγIIIa [2]; with CD32a 131R FcRγIIa [3]; with CD64 FcRγI [4]; in test [5]) was “binds” each time.

B2: HB1906 (bispecific antibody, human IgG1, kappa)
light 1: DIQMTQTTSSLSASLGDRVTISCRASQDISKYLNWYQEKPDGTVKLLIYHTSRLHSGVPSRFSGSGSGTDYSLTISNLEQEDIATYFCQQGNTLPYTFGGGTKLEIKRTVAAPSVFIFPPSDEQLKSGTASVKCLLNNFYPREAKVQWKVDNALQSGNSQESVTEQDSKDSTYSLSSTLTLSKADYEKHKVYACEVTHQGLSSPVTKSFNRGEC
heavy 1: EVKLQESGPGLVAPSQSLSVTCTVSGVSLPDYGVSWIRKPPRKGLEWLGVIWGSETTYYNSALKSRLTIIKDNSKSQVFLKMSSLQTDDTAIYYCAKHYYYGGSYAMDYWGQGTSVTVSSASTKGPSVFPLAPSSKSTSGGTAALGCLVKDYFPEPVTVSWNSGALTSGVHTFPAVLQSSGLYSLESVVTVPSSSLGTQTYICNVNHKPSNTKVDKKVEPKSCTDWSPYADQSIKVRISLKSALGDKAYEWNDNEMYLFRSSVAYAMRQYFLKVKNQMILFGEEDVRVANLKPRISFNFFVTAPKNVSDIIPRTEVEKAIRMSRSRINDAFRLNDNSLEFLGIQPTLGPPNQPPVSTSTSPTRSMAPGAVHLPQPVSTRDKTHTCPPCPAPELLGGPSVFLFPPKPKDTLMISRTPEVTCVVVDVSHEDPEVKFNWYVDGVEVHNAKTKPREEQYNSTYRVVSVLTVLHQDWLNGKEYKCKVSNKALPAPIEKTISKAKGQPREPQVCTLPPSRDELTKNQVSLSCAVKGFYPSDIAVEWESNGQPENNYKTTPPVLDSDGSFFLVSKLTVDKSRWQQGNVFSCSVMHEALHNRFTQKSLSLSPG
light 2: QVQLQQPGAELVKPGASVKMSCKASGYTFTSYNMHWVKETPGRGLEWIGAIYPGNGDTSYNQKFKGKATLTADKSSSTAYMQLSSLTSEDSAVYYCARSTYYGGDWYFNVWGAGTLVTVSSASVAAPSVFIFPPSDEQLKSGTASVECLLNNFYPREAKVQWKVDNALQSGNSQESVTEQDSKDSTYSLSSTLTLSKADYEKHKVYACEVTHQGLSSPVTKSFNRGEC
heavy 2: not shown
notes: as for B1
Regarding B2, the binding result (in test [1]; with CD16a 158V FcRγIIIa [2]; with CD32a 131R FcRγIIa [3]; in the test with CD64 FcRγI [4]; in test [5]) was “binds” throughout.

B3: Rituxan (antibody)
VH: not shown
VL: QIVLSQSPAILSASPGEKVTMTCRASSSVSYIHWFQQKPGSSPKPWIYATSNLASGVPVRFSGSGSGTSYSLTISRVEAEDAATYYCQQWTSNPPTFGGGTKLEIKRTVAAPSVFIFPPSDEQLKSGTASVVCLLNNFYPREAKVQWKVDNALQSGNSQESVTEQDSKDSTYSLSSTLTLSKADYEKHKVYACEVTHQGLSSPVTKSFNRGEC
Broadly, the Kd is a measure of binding affinity in units of concentration. Regarding B3, the Kd in the test with CD16a 158V FcRγIIIa [6] is 715 nM; in the test with CD32a 131R FcRγIIa [7] it was 1250 nM; with CD32a 131H FcRγIIa, 892 nM; with CD64 FcRγI [8] it was 52.8 nM; with CD16b FcRγIIIb, 1530 nM; with CD32b/c FcRγIIb, 1520 nM.

B4: B19c66 (antibody, human IgG1, kappa)
light: not shown
heavy: not shown
chain: CPPCPAPELLGGPSVFLFPPKPKDTLMISRTPEVTCVVVDVSHEDPEVKFNWYVDGVEVHNAKTKPREEQYNSTYRVVSVLTVLHQDWLNGKEYKCKVSNKALPAPIEKTISKAKGQPREPQVYVYPPSRDELTKNQVSLTCLVKGFYPSDIAVEWESNGQPENNYKTTPPVLDSDGSFALVSKLTVDKSRWQQGNVFSCSVMHEALHNHYTQKSLSLSPGK
The molecule B4 came in with a Kd with CD19 (Table 9) of 21.8 nM.

B5: B19c66AAC9 (antibody, human IgG1, kappa)
light: not shown
heavy: QVQLQQSGAELVRPGSSVKISCKASGYAFSSYWMNWVKQRPGQGLEWIGQIWPGDGDTNYNGKFKGKATLTADESSSTAYMQLSSLASEDSAVYFCARRETTTVGRYYYAMDYWGQGTTVTVSSASTKGPSVFPLAPSSKSTSGGTAALGCLVKDYFPEPVTVSWNSGALTSGVHTFPAVLQSSGLYSLSSVVTVPSSSLGTQTYICNVNHKPSNTKVDKKVEPKSCDKTHTCPPCPAPKRRGGPSVFLFPPKPKDTLMISRTPEVTCVVVDVSHEDPEVKFNWYVDGVEVHNAKTKPREEQYNSTYRVVSVLTVLHQDWLNGKEYKCKVSNKALPAPIEKTISKAKGQPREPQVYVLPPSRDELTKNQVSLLCLVKGFYPSDIAVEWESNGQPENNYLTWPPVLDSDGSFFLYSKLTVDKSRWQQGNVFSCSVMHEALHNHYTQKSLSLSPGK
chain: CPPCPAPEDEGGPSVFLFPPKPKDTLMISRTPEVTCVVVDVSHEDPEVKFNWYVDGVEVHNAKTKPREEQYNSTYRVVSVLTVLHQDWLNGKEYKCKVSNKALPAPIEKTISKAKGQPREPQVYVYPPSRDELTKNQVSLTCLVKGFYPSDIAVEWESNGQPENNYKTTPPVLDSDGSFALVSKLTVDKSRWQQGNVFSCSVMHEALHNHYTQKSLSLSPGK
In the case of B5, in the test with CD19 (Table 9), binding was characterised by a dissociation constant (Kd) of 21 nM.
